T1: EsCas13d, nuclease-dead (Eubacterium siraeum, UniProt B0MS50, R295A;H300A;R849A;H854A)
T1 sequence: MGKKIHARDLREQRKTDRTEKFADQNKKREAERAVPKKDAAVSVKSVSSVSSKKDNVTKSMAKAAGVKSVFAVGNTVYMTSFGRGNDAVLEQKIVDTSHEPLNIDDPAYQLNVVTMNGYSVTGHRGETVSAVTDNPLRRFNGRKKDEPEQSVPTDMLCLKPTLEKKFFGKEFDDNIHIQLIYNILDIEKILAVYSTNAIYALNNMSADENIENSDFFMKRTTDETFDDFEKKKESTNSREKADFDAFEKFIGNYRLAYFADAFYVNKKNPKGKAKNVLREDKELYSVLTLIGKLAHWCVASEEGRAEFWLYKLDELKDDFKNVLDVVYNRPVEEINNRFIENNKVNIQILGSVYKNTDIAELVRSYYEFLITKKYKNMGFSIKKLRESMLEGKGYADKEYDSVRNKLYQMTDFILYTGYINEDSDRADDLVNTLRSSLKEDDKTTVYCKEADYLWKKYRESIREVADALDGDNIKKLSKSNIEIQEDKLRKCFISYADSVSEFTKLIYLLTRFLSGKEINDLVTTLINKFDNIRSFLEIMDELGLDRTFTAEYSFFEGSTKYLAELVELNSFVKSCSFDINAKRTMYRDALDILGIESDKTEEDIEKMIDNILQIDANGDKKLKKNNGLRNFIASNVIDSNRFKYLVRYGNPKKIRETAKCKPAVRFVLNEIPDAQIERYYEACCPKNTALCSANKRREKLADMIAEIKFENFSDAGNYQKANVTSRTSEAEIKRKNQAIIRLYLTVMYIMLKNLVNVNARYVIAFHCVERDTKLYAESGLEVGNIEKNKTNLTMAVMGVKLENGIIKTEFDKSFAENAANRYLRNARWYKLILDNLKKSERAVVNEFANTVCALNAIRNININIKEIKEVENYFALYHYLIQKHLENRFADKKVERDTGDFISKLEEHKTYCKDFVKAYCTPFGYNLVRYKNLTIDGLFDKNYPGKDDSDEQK

B1: target 3 G3C,G4C (mixed)
RNA 1: CACCCGUGCAAAAUUGCAGGGGUCUAAAACGACCUGAAUAUUUCAGAUCAAA
RNA 2: GGGAAUGGAUCCACAUCUACGAAUUCGUUUUUGAUCUGAAAUAUUCACCUCUGCAGAUCGGAAGAGCACACGU
B2: target 3 insU 3' of 16 (mixed)
RNA 1: CACCCGUGCAAAAUUGCAGGGGUCUAAAACGACCUGAAUAUUUCAGAUCAAA
RNA 2: GGGAAUGGAUCCACAUCUACGAAUUCGUUUUUGAUCUUGAAAUAUUCAGGUCUGCAGAUCGGAAGAGCACACGU
B3: target 3 insA 3' of 6,insA 3' of 1 (mixed)
RNA 1: CACCCGUGCAAAAUUGCAGGGGUCUAAAACGACCUGAAUAUUUCAGAUCAAA
RNA 2: GGGAAUGGAUCCACAUCUACGAAUUCGUUUUUGAUCUGAAAUAUUCAAGGUCAUGCAGAUCGGAAGAGCACACGU
B4: target 3 insC 3' of 12,insU 3' of 4 (mixed)
RNA 1: CACCCGUGCAAAAUUGCAGGGGUCUAAAACGACCUGAAUAUUUCAGAUCAAA
RNA 2: GGGAAUGGAUCCACAUCUACGAAUUCGUUUUUGAUCUGAACAUAUUCAGUGUCUGCAGAUCGGAAGAGCACACGU
B5: target 3 U2C,C6U (mixed)
RNA 1: CACCCGUGCAAAAUUGCAGGGGUCUAAAACGACCUGAAUAUUUCAGAUCAAA
RNA 2: GGGAAUGGAUCCACAUCUACGAAUUCGUUUUUGAUCUGAAAUAUUUAGGCCUGCAGAUCGGAAGAGCACACGU
B6: target 3 G4U,U22C (mixed)
RNA 1: CACCCGUGCAAAAUUGCAGGGGUCUAAAACGACCUGAAUAUUUCAGAUCAAA
RNA 2: GGGAAUGGAUCCACAUCUACGAAUUCGUUCUUGAUCUGAAAUAUUCAUGUCUGCAGAUCGGAAGAGCACACGU
B7: target 3 A12G,U21A (mixed)
RNA 1: CACCCGUGCAAAAUUGCAGGGGUCUAAAACGACCUGAAUAUUUCAGAUCAAA
RNA 2: GGGAAUGGAUCCACAUCUACGAAUUCGUUUAUGAUCUGAGAUAUUCAGGUCUGCAGAUCGGAAGAGCACACGU
B8: target 3 insA 3' of 7,insU 3' of 4 (mixed)
RNA 1: CACCCGUGCAAAAUUGCAGGGGUCUAAAACGACCUGAAUAUUUCAGAUCAAA
RNA 2: GGGAAUGGAUCCACAUCUACGAAUUCGUUUUUGAUCUGAAAUAUUACAGUGUCUGCAGAUCGGAAGAGCACACGU
B9: target 3 G3U,U21A (mixed)
RNA 1: CACCCGUGCAAAAUUGCAGGGGUCUAAAACGACCUGAAUAUUUCAGAUCAAA
RNA 2: GGGAAUGGAUCCACAUCUACGAAUUCGUUUAUGAUCUGAAAUAUUCAGUUCUGCAGAUCGGAAGAGCACACGU
B10: target 3 insC 3' of 3,insU 3' of 1 (mixed)
RNA 1: CACCCGUGCAAAAUUGCAGGGGUCUAAAACGACCUGAAUAUUUCAGAUCAAA
RNA 2: GGGAAUGGAUCCACAUCUACGAAUUCGUUUUUGAUCUGAAAUAUUCAGGCUCUUGCAGAUCGGAAGAGCACACGU
B11: target 3 insA 3' of 15,insA 3' of 2 (mixed)
RNA 1: CACCCGUGCAAAAUUGCAGGGGUCUAAAACGACCUGAAUAUUUCAGAUCAAA
RNA 2: GGGAAUGGAUCCACAUCUACGAAUUCGUUUUUGAUCUAGAAAUAUUCAGGUACUGCAGAUCGGAAGAGCACACGU
B12: target 3 U2G,U8A (mixed)
RNA 1: CACCCGUGCAAAAUUGCAGGGGUCUAAAACGACCUGAAUAUUUCAGAUCAAA
RNA 2: GGGAAUGGAUCCACAUCUACGAAUUCGUUUUUGAUCUGAAAUAAUCAGGGCUGCAGAUCGGAAGAGCACACGU
B13: target 1 insG 3' of 3 (mixed)
RNA 1: CACCCGUGCAAAAAUGCAGGGGUCUAAAACUGAGCGGAUAACCUCUCUAUGG
RNA 2: GGGAAUGGAUCCACAUCUACGAAUUCGUACCAUAGAGAGGUUAUCCGCUGCACCGAGAUCGGAAGAGCACACGU

The binders below were run against T1, EsCas13d, nuclease-dead (assay: crRNA (strand 1, pre-loaded); Mg2+; 40 mM Tris-HCl pH 7.5, 150 mM NaCl, 6 mM MgCl2, 1 mM DTT, 0.1% Tween-20, 0.2 mg/ml BSA; 25 C; 10 min per concentration, then washed). Details: tags: His6-TwinStrep-SUMO cleaved; N-terminal SNAP kept (SNAP-Surface 488); label: 3' end held by stalled T7 RNA polymerase.
Work on B1 yielded a Kd of 36.1 ± 5.75 nM. Work on B2 yielded a Kd of 64 ± 8.5 nM. Work on B3 yielded a Kd of 53 ± 18 nM. For B4, the Kd was about 64.5 nM. With B5 the Kd was 52.5 ± 7 nM. B6 gave a Kd of 4.65 ± 0.85 nM. B7 gave a Kd of 97.5 ± 47 nM. For B8, the Kd was 12.7 ± 1.2 nM. In the case of B9, the Kd is reported as 87.5 ± 15.5 nM. Binder B10 has a Kd of 46 ± 6 nM. Work on B11 yielded a Kd of about 64 nM. Binder B12 has a Kd of 21.6 ± 3.55 nM. Binder B13 has a Kd of 7.3 ± 0.6 nM.
